Experiment [1] has as its target recombinant human ICAM-1 (Homo sapiens, UniProt P05362). The experiment is described as follows: ELISA on recombinant human ICAM-1, ICAM-2, ICAM-3. Format: binding. The following applies: vs ICAM-2, ICAM-3. On the procedure: Antibody-specific bands were excised and subjected to tryptic digestion and analyzed by MALDI-TOF. The single band precipitated by BI-505 was identified as ICAM-1. The established identity of ICAM-1 was confirmed by blocking studies by up to 50-fold molar excess soluble recombinant ICAM-1 or VCAM. The MFI of BI-505 to PC-3 cells was determined by flow cytometry. Dashed line represents the negative control antibody and gray solid histogram represents the MFI of BI-505 with no preblocking. BI-505 was preblocked by recombinant VCAM or ICAM-1. […] Anti-ICAM-2 and α-ICAM-3 antibodies were used as positive controls to detect ICAM-2 and ICAM-3 respectively.

The test system of experiment [2] is ARH-77 cells. Briefly: Subcutaneous scid/ARH-77 xenograft, prophylactic model.
Procedure: Tumor cells were injected subcutaneously into the left flank of SCID mice. Mice received twice-weekly intraperitoneal injections with BI-505, control antibody or rituximab at doses of 20, 2 and/or 0.2 mg/kg commencing one day after tumor cell inoculation. There were 8 to 10 animals per treatment group. […] Statistical significance was calculated relative to control antibody treatment using Kruskal-Wallis Test (Nonparametric ANOVA) with Dunn's Multiple Comparisons Test (tumor volume) or the log-rank test (mouse survival) using Graphpad Instat or Prism software, respectively. Statistical significance was considered for *p<0.05, **p<0.01, and ***p<0.001.
Tumor cells were injected subcutaneously into the left flank of SCID mice. Mice received twice-weekly intraperitoneal injections with BI-505 at doses of 0.02-20 mg/kg commencing day after tumor cell inoculation. There were 8-10 animals per treatment group. […] Statistical significance was calculated relative to control antibody treatment using Kruskal-Wallis Test (Nonparametric ANOVA) with Dunn's Multiple Comparisons Test (tumor volume) or the log-rank test (mouse survival) using Graphpad Instat or Prism software, respectively. Statistical significance was considered for *p<0.05, **p<0.01, and ***p<0.001. Graphs illustrate representative experiments out of several performed.
(FIG. 7A) ARH-77 cells were injected subcutaneously into the left flank of SCID mice (n=8 per group). Mice were treated with the different BI-505 isotypes twice weekly. […] Statistical significance was calculated relative to control antibody treatment using Kruskal-Wallis Test (Nonparametric ANOVA) with Dunn's Multiple Comparisons Test. Statistical significance was considered for *p<0.05, **p<0.01, and ***p<0.001.
Mice were anaesthetized with a mixture of sevofluran and oxygen prior to myeloma cell inoculation and 1-5×10^6 myeloma cells were then subcutaneously injected in a volume of 100 μl into the left flank.

Chain of recombinant human ICAM-1 (P05362 28-532): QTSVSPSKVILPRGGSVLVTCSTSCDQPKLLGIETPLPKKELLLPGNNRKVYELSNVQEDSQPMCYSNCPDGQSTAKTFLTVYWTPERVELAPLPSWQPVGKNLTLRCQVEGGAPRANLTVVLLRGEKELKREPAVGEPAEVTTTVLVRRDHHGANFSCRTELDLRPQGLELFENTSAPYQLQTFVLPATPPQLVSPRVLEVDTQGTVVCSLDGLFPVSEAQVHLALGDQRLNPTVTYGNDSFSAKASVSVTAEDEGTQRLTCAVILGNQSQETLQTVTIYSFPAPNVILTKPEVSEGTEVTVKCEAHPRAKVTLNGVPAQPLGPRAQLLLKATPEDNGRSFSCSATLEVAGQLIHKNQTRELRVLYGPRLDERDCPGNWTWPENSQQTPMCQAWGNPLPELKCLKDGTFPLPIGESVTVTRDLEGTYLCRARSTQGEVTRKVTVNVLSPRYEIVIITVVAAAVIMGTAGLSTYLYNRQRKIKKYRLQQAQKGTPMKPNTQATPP

B1: IgG B11: fully human ICAM-1 antibody isolated from the n-CoDeR library; VH/VL sequences in FIG. 15 (SEQ ID NOs 8, 10) (antibody, V domains shown)
VH: EVQLLESGGGLVQPGGSLRLSCAASGFTFSNAWMSWVRQAPGKGLEWVAFIWYDGSNKYYADSVKGRFTISRDNSKNTLYLQMNSLRAEDTAVYYCARYSGWYFDYWGQGTLVTVSS
VL: QSVLTQPPSASGTPGQRVTISCTGSSSNIGAGYDVHWYQQLPGTAPKLLIYDNNNRPSGVPDRFSGSKSGTSASLAISGLRSEDEADYYCQSYDSSLSAWLFGGGTKLTVLG
modifications: B11 VH region; B11 VL region
On to B1, for which, in experiment [1], the “specificity for ICAM-1” value is given as “high specificity”. Further, the tumor growth result in experiment [2] (20 mg/kg twice weekly i.p., commencing one day after tumor cell inoculation) was “completely prevent tumor-growth”. In addition, the survival result in experiment [2] (IgG B11 at 2 mg/kg, ten-fold lower dose than rituximab) is on record as “complete survival”. For the same molecule, in experiment [2] (dose of 0.2 mg/kg, dose titration), the anti-tumor activity result was “near maximal”. Moreover, the “dose at which anti-tumor activity peaked” value in experiment [2] (dose titration 0.02-20 mg/kg twice weekly i.p.) is 2 mg/kg.
